The values below come from patent US8652790B2, “Conformational entropy in molecular recognition” (The Trustees of the University of Pennsylvania, priority 2007, dated 2014).

For assay [1], the target named is T1, calmodulin (Homo sapiens, UniProt P0DP23). Put plainly: Uncalibrated estimate of conformational entropy of binding from methyl group dynamics of CaM and target domain. The settings on record: for Δ O^2axis Target: O^2axis of 0.101 assumed for the free target domain; for Δ O^2axis CaM: free CaM is the reference state; for ΔSfast^conf: harmonic oscillator plus fast minor rotamer states; for ΔStotal^conf: includes classical term from slow-exchange minor cross peaks; for Normalized Δ O^2axis: normalized to number of amino acids in calmodulin (148) and target domain. Details: made in house. From the text: Using deuterium NMR relaxation methods, fast motion of the methyl-bearing side-chains of the target domains in the six CaM complexes were examined. Muhandiram, D. R. et al., Measurement of H-2 T-1 and T-1p relaxation-times in uniformly C-13-Labeled and fractionally H-2-labeled proteins in solution. J. Am. Chem. Soc. 117, 11536-11544 (1995).
Initially estimates of the conformational entropy of the target domains to the free energy of binding to CaM was obtained using the simple harmonic oscillator model. Li, Z., Raychaudhuri, S., & Wand, A. J., Insights into the local residual entropy of proteins provided by NMR relaxation. Prot. Sci. 5, 2647-2650 (1996). It is assumed that the dynamics of the free unstructured target domain are uniform and correspond to an O^2axis of 0.1. […] This was estimated using a previously described model. Lee, A. L. et al., Temperature dependence of the internal dynamics of a calmodulin peptide complex. Biochemistry 41, 13814-13825 (2002). […] Such heterogeneity would correspond to conformational entropy contributed by states that are not averaged on the NMR chemical shift timescale.
To compare dynamics in the various complexes, we employ a normalization procedure to account for variation in the number of methyl sites in CaM whose motion could be quantified and to account for the fact that, although fully resolved, the number of residues in the target domains ranges between 20 and 26. A simple average was employed. The apparent change in conformational entropy was then calculated as above. To complete the solution of equation (5), the binding entropies obtained by isothermal titration calorimetry were used and calculated the change in solvent entropy using the known structures of free CaM and the five complexes. Kainosho, M. et al., Optimal isotope labelling for NMR protein structure determinations. Nature 440, 52-57 (2006); Aoyagi, M et al., Structural basis for endothelial nitric oxide synthase binding to calmodulin. The EMBO journal 22, 766-775 (2003); Meador, W. E., Means, A. R., & Quiocho, F. A., Target enzyme recognition by calmodulin: 2.4 A structure of a calmodulin-peptide complex. […] Nat. Struct. Biol. 6, 819-824 (1999); Valentine, K. G. et al., The crystal structure and internal dynamics of calmodulin complexed with the calmodulin binding domain of neuronal nitric oxide synthase. Biochemistry, submitted (2007). The empirically determined relationship between changes in accessible surface area and the entropy of solvent is employed. Hilser, V. J. et al., A statistical thermodynamic model of the protein ensemble. Chem. Rev. 106, 1545-1558 (2006). The change in solvent entropy by assuming an extended fully solvated structure for the dissociated domains (see Methods) was calculated. […] Gaboriaud, C. et al., Hydrophobic cluster analysis: an efficient new way to compare and analyse amino acid sequences. FEBS letters 224, 149-155 (1987). […] The surface area of a sphere of equivalent volume of the side-chains in the putative hydrophobic cluster was used as a basis for the solvent entropy calculation. A further correction for the reduction in conformational entropy of the compact free CaMKKα(p) target domain was also applied (see Methods). […] Marlow, M. S. & Wand, A. J., Conformational dynamics of calmodulin in complex with the calmodulin-dependent kinase kinase alpha calmodulin-binding domain. Biochemistry 45, 8732-8741 (2006).

Assay [2] deals with T1, calmodulin. Put plainly: Change in conformational entropy of calmodulin on binding a target domain, estimated from methyl O^2axis (harmonic oscillator model). The settings on record: 308 K; for TSconf: absolute conformational entropy of calmodulin in complex; for −TΔSconf: calmodulin upon binding target domain, free CaM reference state; for TSrotamer(fast) / TSrotamer(slow): classical entropy; for TSrotamer(fast): fast rotamer interconversion; for TSrotamer(slow): slowly interconverting conformers; for TSharm: motion within a rotameric well, simple harmonic oscillator. From the text:
Guided by Karplus and co-workers (see Karplus M et al. (1987)), the present approach connects the change in internal protein dynamics to the conformational entropy, describing the protein as a disjoint multidimensional harmonic well: Sconf=ΣpiS^hi−kBΣpilnpi (2) where S^hi represents the entropy manifested by fast intra-well motion and the second term corresponds to the classical conformational entropy arising from the i=1 . . . N distinct conformations. Here S^hi is obtained from interpretation of local order parameters, which is model-dependent. The present approach finds its modern roots in the work described in Akke, M., Bruschweiler, R. & Palmer, A. G. NMR order parameters and free-energy—an analytical approach and its application to cooperative Ca^2+ binding by calbindin-D(9k). J. Am. Chem. Soc. 115, 9832-9833 (1993), in which a specific motional model (potential energy function) is used to provide a parametric relationship between what is measured, the squared generalized order parameter, and what is sought, a thermodynamic quantity such as the entropy.
A simple harmonic oscillator treatment was selected to make this connection. Li, Z., Raychaudhuri, S. & Wand, A. J. Insights into the local residual entropy of proteins provided by NMR relaxation. Prot. Sci. 5, 2647-2650 (1996). It is important to note that the absolute entropies obtained in this way are very dependent on the details of the potential energy function but that differences in entropy calculated from changes in O^2 are fairly insensitive to the model used. Li, Z, et al. (1996); Lee, A. L. et al. Temperature dependence of the internal dynamics of a calmodulin peptide complex. Biochemistry 41, 13814-13825 (2002). As the reference state for obtaining ΔSconf we use calcium-saturated calmodulin. The second term of equation (2) represents classical entropy arising from the local heterogeneity of side-chain conformers. This can be manifested on a range of timescales. […] This was interpreted as classical entropy with the population of each state (pi) estimated from the intensity of cross peaks. […] Lee, A. L. et al. (2002). This also represents conformational entropy and was estimated using a previously described model. Id.
The change in conformational entropy of calmodulin on binding a target domain was estimated as the sum of three terms: ΔSconf=ΔSharm+ΔSrotamer(fast)+ΔSrotamer(slow). Sharm was obtained from O^2axis parameters using a harmonic oscillator model. Li, Z., Raychaudhuri, S. & Wand, A. J. Insights into the local residual entropy of proteins provided by NMR relaxation. Prot. Sci. 5, 2647-2650 (1996). Free calcium-saturated calmodulin was used as the reference state in site-to-site comparisons. To normalize the unequal number of resolved sites among the complexes, the average methyl order parameter within a complex was assigned to each unresolved site of that complex. A classical entropy term ΔSrotamer(fast) was added to represent minor conformers that are sampled owing to fast rotameric interconversion. Lee, A. L. et al. Temperature dependence of the internal dynamics of a calmodulin peptide complex. Biochemistry 41, 13814-13825 (2002). For the small number of sites having multiple conformations in slow exchange on the NMR chemical shift timescale, an additional classical entropy contribution ΔSrotamer(slow) was calculated on the basis of measured intensities. Populations of the three motional classes were obtained using nonlinear regression of a three gaussian model to the observed order parameter distributions. […]

For “(COOH-FPNGFSRKRLMSKVLIVTTWSPLL [CaMKKα(p)]”, in assay [1], the “Δ O^2axis Target” value is reported as 0.329, the “Δ O^2axis CaM” value is 0.096, the “ΔSfast^conf” value is 48.2921 kcal/mol and the “ΔStotal^conf” value was 49.7978 kcal/mol. In assay [1], the “Normalized Δ O^2axis” value is 22.632. In assay [2], the TSconf is 168.6 kcal/mol, the “−TΔSconf” value is recorded as “+63.5 kJ/mol”, the “TSrotamer(fast)” value is 23.5 kcal/mol and the “TSrotamer(slow)” value was 2.25 kcal/mol. Also, the TSharm in assay [2] was 142.9 kcal/mol.

Take “AKSKWKQAFNATAVVRHMRKLQ (listed as Homo sapiens) [CaMKI(p)]”: in assay [1], the “Δ O^2axis Target” value is listed as 0.555, the “Δ O^2axis CaM” value is 0.107, the “ΔSfast^conf” value is 60.2916 kcal/mol and the “ΔStotal^conf” value is 63.1334 kcal/mol. Also, in assay [1], the “Normalized Δ O^2axis” value was 28.046. Also, in assay [2], the TSconf is 168 kcal/mol, the “−TΔSconf” value is listed as “+66.0 kJ/mol”, the “TSrotamer(fast)” value was 22.6 kcal/mol and the “TSrotamer(slow)” value is 3.59 kcal/mol. For the same substance, the TSharm in assay [2] is 141.8 kcal/mol.

KRRAIGFKKLAEAVKFSAKLMGQ [nNOS(p)]: in assay [1], the “Δ O^2axis Target” value is 0.528, the “Δ O^2axis CaM” value is 0.049, the “ΔSfast^conf” value was 41.5545 kcal/mol and the “ΔStotal^conf” value is 46.7409 kcal/mol. In assay [1], the “Normalized Δ O^2axis” value is on record as 19.396. Moreover, in assay [2], the TSconf is 180 kcal/mol, the “−TΔSconf” value is given as “+15.9 kJ/mol”, the “TSrotamer(fast)” value is 26.31 kcal/mol and the “TSrotamer(slow)” value was 5.93 kcal/mol. The TSharm in assay [2] was 147.8 kcal/mol.

In the case of QTEKMWQRLKGILRSLVKQ [PDE(p)], in assay [2], the TSconf was 177.9 kcal/mol, the “−TΔSconf” value is listed as “+24.9 kJ/mol”, the “TSrotamer(fast)” value was 25.96 kcal/mol and the “TSrotamer(slow)” value is 3.56 kcal/mol. In addition, in assay [2], the TSharm is 148.3 kcal/mol.

On to RKKTFKEVANAVKISASLMG [eNOS(p)], for which, in assay [1], the “Δ O^2axis Target” value is on record as 0.567, the “Δ O^2axis CaM” value is 0.081, the “ΔSfast^conf” value was 50.278 kcal/mol and the “ΔStotal^conf” value was 53.5045 kcal/mol. The “Normalized Δ O^2axis” value in assay [1] is recorded as 23.328. Besides, in assay [2], the TSconf was 172.8 kcal/mol, the “−TΔSconf” value was “+46.1 kJ/mol”, the “TSrotamer(fast)” value is 24.21 kcal/mol and the “TSrotamer(slow)” value was 3.97 kcal/mol. Besides, in assay [2], the TSharm was 144.6 kcal/mol.
